Residue numbers refer to the chain shown, from its start.
B1: hMAB-A (2.2) (antibody, human IgG1, kappa, V domains shown)
VH: EVQLVESGGGLVKPGGSLRLSCAASGFTFSSYWMHWVRQAPGKGLEWVGEIIPIFGHTNYNEKFKSRFTISLDNSKNTLYLQMGSLRAEDTAVYYCARGGYYYYGSRDYFDYWGQGTTVTVSS
VL: DIVMTQSPDSLAVSLGERATISCKASQSVDYSGDSYMNWYQQKPGQPPKLLIYAASDLESGIPARFSGSGSGTDFTLTISSLEPEDFATYYCQQSHEDPFTFGQGTKLEIKR
B2: hMAB-A (2B.2) (antibody, V domains shown)
VH: B1 VH with G105I, S106G, R107K, D108G, Y109V, F110L
VL: DIVMTQSPDSLAVSLGERATISCKASQSVDYSGDSYMNWYQQKPGQPPKLLIYAASDLESGIPARFSGSGSGTDFTLTISSLEPEDFATYYCQQSHEDPFTFGQGTKLEIK
B3: hMAB-A (2C.2) (antibody, human IgG1, kappa, V domains shown)
VH: B1 VH with G105P, S106R, R107F, D108G, Y109W, F110L
VL: B1 VL
B4: hMAB-A (2D.2) (antibody, V domains shown)
VH: B1 VH with G105T, S106G, R107K, D108G, Y109V, F110L
VL: B2 VL

Target: His peptide-tagged soluble cynoADAM9 (cynoADAM9-His) (cynomolgus monkey)
Experiment: SPR (BIACORE), antibody captured, cynoADAM9-His in flow

Row | Kd | koff | kon | Binder
1 | 110 nM | 0.022 s⁻¹ | 200000 M⁻¹ s⁻¹ | B1
2 | 0.2 nM | 6.6e-05 s⁻¹ | 340000 M⁻¹ s⁻¹ | B2
3 | < 0.3 nM | < 1e-05 s⁻¹ | 350000 M⁻¹ s⁻¹ | B3
4 | 0.7 nM | 0.0003 s⁻¹ | 420000 M⁻¹ s⁻¹ | B4
